Series [1] addresses Tea1p fused to the DNA binding domain of GAL4 (pAS1) (Schizosaccharomyces pombe, UniProt P04386 1-147; P87061 1-1147). The series is described as follows: yeast two-hybrid (HIS3 and LACZ reporters). The text has this:
(§1) The tea1 gene was fused to the DNA binding domain of GAL4 in a plasmid (pAS1) carrying the trp1 marker. The orb6 gene was fused to the DNA binding domain of GAL4 (pAS1-orb6) and to the GAL4 activator domain (pACT2-orb6). The cDNA library was cloned to the transcription activator domain of GAL4 in a plasmid (pACT) carrying the leu2 marker. Plasmids pAS1, pACT2, pSE1111 (pACT-SNF4), pSE1112 (pAS1-SNF1), pAS1-p53, pAS1-lamin and the S. pombe library prepared in phage λ vectors and plasmids pAS1-SNF1 and pAS1-lamin, both harbored in Y187 strain, were kindly provided by Dr. S. Elledge. The test for cell growth on medium lacking histidine, the beta-galactosidase activation assay and the mating test to detect interaction specificity were performed as described (14). After screening 2×10⁶ transformants, we found five proteins that interact with Orb6p and four that interact with Tea1p in this system, and that were identified multiple times in the screen. Clones containing bot1+ were isolated 22 times in the Orb6p screen and eight times in the Tea1p screen. All clones contained the full-length bot1 sequence, although they usually lacked the initial ATG codon. For beta-galactosidase activation, three independent transformants were assayed for each condition.
(§2) To identify novel components of the Orb6p pathway, a two-hybrid screen was performed to identify cDNAs encoding proteins that interact with Orb6p. One of these, isolated 22 times in this screen, was a novel protein that we named Bot1p. […] The specificity of the positive interaction between Orb6p and Bot1p in the two-hybrid system was controlled by cotransformation of pAS1-orb6 and pACT-bot1 independently with a number of control plasmids. Co-expression of SNF1p or SNF4p was used as positive controls. Orb6p was unable to support the activation of the LACZ-GAL4 and HIS3-GAL4 promoters when co-expressed with GAL4 activation domain fused to SNF4p, or with the GAL4 activation domain (GAD) alone. Bot1p was unable to support the activation of the LACZ-GAL4 and HIS3-GAL4 promoters when co-expressed with the GAL4 binding domain fused to p53, Cdc23p, GAL4 DNA binding domain (GBD) alone, or fused to SNF1p or Cdt1p.

The target in series [2] is T1, Orb6p fused to the DNA binding domain of GAL4 (pAS1-orb6) (Schizosaccharomyces pombe, UniProt P04386 1-147; O13310 1-469, limits assumed). The series is described as follows: yeast two-hybrid (HIS3 and LACZ reporters).
Text: as §1, §2

Series [3] deals with T1, Orb6p fused to the DNA binding domain …. The series is described as follows: LACZ-GAL4 reporter in strain BY3161, control of the three-hybrid test.
For series [4], the target named is T2, HA-tagged Cdc23p (pRep41-HA3cdc23) (fission yeast, UniProt O42709 1-593).
T2 construct: also called HA-Cdc23p; HA-Cdc23
T2 sequence (looked up): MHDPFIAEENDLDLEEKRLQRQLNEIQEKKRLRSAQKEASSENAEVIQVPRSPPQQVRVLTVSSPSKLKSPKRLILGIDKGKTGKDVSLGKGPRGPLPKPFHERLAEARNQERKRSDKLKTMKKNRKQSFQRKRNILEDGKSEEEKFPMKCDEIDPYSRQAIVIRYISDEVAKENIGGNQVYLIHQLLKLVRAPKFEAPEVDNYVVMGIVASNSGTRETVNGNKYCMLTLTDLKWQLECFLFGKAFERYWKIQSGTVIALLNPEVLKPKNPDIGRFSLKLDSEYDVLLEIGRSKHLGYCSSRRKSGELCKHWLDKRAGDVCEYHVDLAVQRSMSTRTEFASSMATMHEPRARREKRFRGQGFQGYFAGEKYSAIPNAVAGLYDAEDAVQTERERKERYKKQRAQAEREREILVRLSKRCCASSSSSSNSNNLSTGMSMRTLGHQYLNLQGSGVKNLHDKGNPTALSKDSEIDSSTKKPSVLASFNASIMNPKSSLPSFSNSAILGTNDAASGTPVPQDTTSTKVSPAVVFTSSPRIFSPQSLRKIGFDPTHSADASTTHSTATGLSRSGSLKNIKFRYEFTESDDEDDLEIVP
The series is described as follows: co-purification on glutathione resin from fission yeast extracts, co-expressed. As to the method:
(§3) Immunoblot analysis was performed using standard methodology. For co-purification experiments, ade6-704 ura4-D18 leu1-32 h-cells co-expressing HA-tagged Bot1p and GST-tagged Orb6p (FV17p), or cells co-expressing HA-tagged Bot1p and GST alone (FV16p) as a control were cultured, for 15 hr at 32° C. in the absence of thiamine. HA₃-bot1 was moderately expressed from an attenuated nmt1 promoter (10). GST-tagged fusions were constructed using the pESP plasmid (Qiagen), which also contains a nmt1 promoter. Cells were then re-suspended in HB buffer and broken using a FastPrep FP120 bead beater (Savant). Extracts were spun at 15K rpm for 15 min. GST-tagged Orb6 or GST alone was purified using glutathione beads (Molecular Probes).
Glutathione beads were washed three times in HB buffer and then eluted. […]
To confirm this interaction between Bot1p and Orb6p in fission yeast extracts, HA-Bot1p and GST-Orb6p were co-expressed in fission yeast cells, and GST-Orb6p was purified using glutathione-coupled resin. […] Furthermore, neither GST nor GST-Orb6p co-purified with HA-tagged Cdc23p, when co-expressed as an additional control for specificity.

Series [5] concerns the target T3, HA-tagged Tea1p (nmt1-HA3tea1) (Schizosaccharomyces pombe, UniProt P87061 1-1147).
T3 construct: also called HA-Tea1p
T3 sequence (looked up): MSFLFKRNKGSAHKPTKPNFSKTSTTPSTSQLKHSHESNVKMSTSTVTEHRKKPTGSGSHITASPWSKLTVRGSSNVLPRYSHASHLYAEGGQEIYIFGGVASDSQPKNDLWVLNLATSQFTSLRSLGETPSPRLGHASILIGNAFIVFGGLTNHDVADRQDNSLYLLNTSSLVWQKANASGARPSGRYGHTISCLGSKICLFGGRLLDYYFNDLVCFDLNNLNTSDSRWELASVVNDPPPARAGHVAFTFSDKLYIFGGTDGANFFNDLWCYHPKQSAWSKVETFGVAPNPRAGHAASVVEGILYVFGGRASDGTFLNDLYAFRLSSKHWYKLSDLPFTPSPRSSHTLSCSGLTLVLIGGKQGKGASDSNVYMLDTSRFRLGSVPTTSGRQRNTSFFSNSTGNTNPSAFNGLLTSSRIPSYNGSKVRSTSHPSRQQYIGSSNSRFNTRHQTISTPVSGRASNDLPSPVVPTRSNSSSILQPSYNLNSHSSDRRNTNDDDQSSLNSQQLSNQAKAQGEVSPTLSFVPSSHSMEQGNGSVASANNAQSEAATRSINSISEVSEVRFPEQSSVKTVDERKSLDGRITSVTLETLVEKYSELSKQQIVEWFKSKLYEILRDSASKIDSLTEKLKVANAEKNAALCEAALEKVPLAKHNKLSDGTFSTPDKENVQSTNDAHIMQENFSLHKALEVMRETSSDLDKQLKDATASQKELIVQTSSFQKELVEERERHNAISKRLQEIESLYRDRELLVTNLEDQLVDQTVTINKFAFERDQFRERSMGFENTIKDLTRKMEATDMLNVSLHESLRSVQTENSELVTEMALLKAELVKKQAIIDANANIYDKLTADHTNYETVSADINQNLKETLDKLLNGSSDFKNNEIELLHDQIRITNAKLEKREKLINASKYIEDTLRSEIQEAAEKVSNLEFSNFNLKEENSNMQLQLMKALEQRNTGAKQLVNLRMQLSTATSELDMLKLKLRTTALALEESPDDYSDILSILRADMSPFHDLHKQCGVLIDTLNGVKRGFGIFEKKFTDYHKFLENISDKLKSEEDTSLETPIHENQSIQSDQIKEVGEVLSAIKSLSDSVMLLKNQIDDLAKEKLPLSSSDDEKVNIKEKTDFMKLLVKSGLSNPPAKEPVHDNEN
The series can be described thus: glutathione beads carrying GST-Orb6p with co-purified HA-Bot1p, incubated with an extract containing HA-Tea1p. As to the method: as §3
Glutathione beads were washed three times in HB buffer and then eluted. The eluate was run on a 10% polyacrylamide gel, blotted on nitrocellulose, and probed with a primary anti-HA antibody (Covance) or, separately, with a primary anti-GST antibody (Molecular Probes) and with a horseradish peroxidase-conjugated secondary antibody (ECL, Amersham).
To investigate whether Bot1p is able to form a complex with Tea1p and Orb6p, we determined if these proteins co-immunoprecipitate in cell extracts, if they interact in the yeast two-hybrid system, and if they are able to associate in vitro. […]

Series [6] deals with T4, HA-tagged Bot1p (HA3-bot1, pRep41-HA3bot1).
T4 chain: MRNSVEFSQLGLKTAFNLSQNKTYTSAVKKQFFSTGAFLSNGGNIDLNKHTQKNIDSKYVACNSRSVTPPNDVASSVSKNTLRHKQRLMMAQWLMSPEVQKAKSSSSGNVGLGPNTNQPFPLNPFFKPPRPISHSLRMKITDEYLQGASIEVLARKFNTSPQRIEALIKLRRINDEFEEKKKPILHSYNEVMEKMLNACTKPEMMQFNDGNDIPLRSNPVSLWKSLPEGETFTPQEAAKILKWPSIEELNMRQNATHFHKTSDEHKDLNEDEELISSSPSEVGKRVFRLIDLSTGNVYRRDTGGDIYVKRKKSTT

B1: GAL4 activation domain (GAD) alone (other, UniProt P04386 768-881, looked up)
chain: ANFNQSGNIADSSLSFTFTNSSNGPNLITTQTNSQALSQPIASSNVHDNFMNNEITASKIDDGNNSKPLSPGWTDQTAYNAFGITTGMFNTTTMDDVYNYLFDDEDTPPNPKKE
notes: Two-hybrid negative control
Take B1: the binding result in series [1] and in series [2] was “no binding” in each case.

B2: GAL4 activation domain fused to SNF4p (pSE1111, pACT-SNF4) (other, UniProt P12904 1-322, looked up, not shown: large carriers)
chain: MKPTQDSQEKVSIEQQLAVESIRKFLNSKTSYDVLPVSYRLIVLDTSLLVKKSLNVLLQNSIVSAPLWDSKTSRFAGLLTTTDFINVIQYYFSNPDKFELVDKLQLDGLKDIERALGVDQLDTASIHPSRPLFEACLKMLESRSGRIPLIDQDEETHREIVVSVLTQYRILKFVALNCRETHFLKIPIGDLNIITQDNMKSCQMTTPVIDVIQMLTQGRVSSVPIIDENGYLINVYEAYDVLGLIKGGIYNDLSLSVGEALMRRSDDFEGVYTCTKNDKLSTIMDNIRKARVHRFFVVDDVGRLVGVLTLSDILKYILLGSN
Turning to B2, the binding result in series [3] and in series [1] was “no binding” throughout.

B3: GST-tagged Orb6p expressed in fission yeast (pESP-GSTOrb6+) (enzyme, Schizosaccharomyces pombe, UniProt O13310 1-469, looked up, not shown: a dimerising Fc or GST)
chain: MDKNDYLHFERNPSLFPKSTLDKVQKTKKYIEHYYKVAVDHAVERNQRRINLEQRLATERGSEERKNRQLRASGEKESQFLRFRRTRLSLEDFSTIKVIGKGAFGEVRLVQKLDTGKIYAMKSLLKTEMFKRDQLAHVKAERDLLVESDSPWVVSLYYAFQDSLYLYLIMEFLPGGDLMTMLINYDTFSEDVTRFYMAECVLAIADVHRMGYIHRDIKPDNILIDRDGHIKLSDFGLSTGFYKQDQSASYMKPRTGNTVKRGQMVDAIWLTMSSKDKMATWKKNRRVMAYSTVGTPDYIAPEIFLQQGYGQDCDWWSLGAIMFECLIGWPPFCSENSHETYRKIINWRETLTFPNDIHLSIEARDLMDRLMTDSEHRLGRGGAIEIMQHPFFTGIDWDHIRETAAPFIPNLKSITDTHYFPVDELEQVPEQPVTQQPASVDPQTLEQTNLAFLGYTYKKFNYLTMKGAL
notes: also called GST-Orb6p
For B3, the binding result in series [4] is given as “no binding”. The binding result in series [5] was “no binding”. In series [6], the “GST-Orb6p autophosphorylation (in vitro protein kinase activity)” value was “The level of GST-Orb6p autophosphorylation was the same for proteins isolated from control and Bot1p-overexpressing cells”; the “in vitro phosphorylation of Bot1p by Orb6p” value is given as “Orb6p-associated Bot1p was not phosphorylated in vitro by Orb6p”.

These data come from patent publication US20040106173A1, “Bot1: target for antifungal agents” (The University of Miami, priority 2001, published 2004).
